Experimental data reported in publication PMC11333492 (Nature Communications, 2024).

Target: T1, FluPolB (influenza B/Memphis/13/2003 polymerase heterotrimer) (influenza B/Memphis/13/2003, UniProt Q5V8Z9;Q5V8Y6;Q5V8X3)
T1 construct: copies: + +
Assay: SEC
Settings: both partners purified

B1: hANP32A LCAR alone (144-249) (domain or fragment)
chain: YLDGYDRDDKEAPDSDAEGYVEGLDDEEEDEDEEEYDEDAQVVEDEEDEDEEEEGEEEDVSGEEEEDEEGYNDGEVDDEEDEEELGEEERGQKRKREPEDEGEDDD
binding result: binds
